In publication PMC10433963:

Legend:
[1] = target: ^H7-SUMOClpC1^FLAG (recombinant ClpC1) (M. smegmatis) (UniProt A0R574)
[2] = target: ^H7-SUMOClpC1^FLAG (recombinant ClpC1) (M. smegmatis) (UniProt A0R574); remark: listed apart in the source

Sequence of ^H7-SUMOClpC1^FLAG (recombinant ClpC1) (M. smegmatis) (A0R574 whole entry): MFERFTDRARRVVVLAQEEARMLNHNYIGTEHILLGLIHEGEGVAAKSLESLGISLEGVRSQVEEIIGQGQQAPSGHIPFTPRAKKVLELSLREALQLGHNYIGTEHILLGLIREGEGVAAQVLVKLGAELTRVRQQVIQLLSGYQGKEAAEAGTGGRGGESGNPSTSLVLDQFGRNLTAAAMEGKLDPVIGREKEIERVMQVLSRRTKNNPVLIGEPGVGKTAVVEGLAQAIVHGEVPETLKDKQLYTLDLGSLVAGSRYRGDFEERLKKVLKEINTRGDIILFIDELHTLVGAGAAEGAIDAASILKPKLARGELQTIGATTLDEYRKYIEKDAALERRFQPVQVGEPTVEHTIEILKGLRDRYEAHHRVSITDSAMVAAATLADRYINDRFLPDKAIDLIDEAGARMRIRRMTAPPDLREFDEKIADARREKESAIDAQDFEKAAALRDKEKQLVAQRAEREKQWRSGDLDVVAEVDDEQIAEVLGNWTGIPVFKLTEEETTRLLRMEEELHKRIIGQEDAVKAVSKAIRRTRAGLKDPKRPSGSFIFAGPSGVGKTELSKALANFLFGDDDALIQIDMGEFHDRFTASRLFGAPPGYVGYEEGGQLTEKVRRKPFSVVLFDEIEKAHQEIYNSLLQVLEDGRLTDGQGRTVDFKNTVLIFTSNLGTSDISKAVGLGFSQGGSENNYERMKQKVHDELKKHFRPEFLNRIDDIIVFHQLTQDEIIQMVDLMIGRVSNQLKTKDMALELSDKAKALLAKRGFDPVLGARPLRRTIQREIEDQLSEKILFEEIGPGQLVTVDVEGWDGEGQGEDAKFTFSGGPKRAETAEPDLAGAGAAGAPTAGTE

Row | Substance | Km of degradation by ClpC1P1P2, loss of GFP fluorescence, Michaelis-Menten analysis [1] [µM] | Km of degradation by 1 uM ClpC1P1P2, loss of GFP fluorescence, Michaelis-Menten analysis [1] [µM] | also measured
1 | GFP^MSMEI_3879 (MSMEI_3879 fused to the C terminus of GFP) | – | 18.8 | –
2 | MSMEI_3879 (recombinant) (natural protein) | – | – | degradation of 10 uM MSMEI 3879 by 1 uM ClpC1 and 1 uM ClpP1P2 in vitro, SDS-PAGE densitometry, protein hydrolyzed within 40 min [2]: 75%

The next lines start with results.

Row | Km of degradation by ClpC1P1P2, loss of GFP fluorescence, Michaelis-Menten analysis [1] [µM] | Km of degradation by 1 uM ClpC1P1P2, loss of GFP fluorescence, Michaelis-Menten analysis [1] [µM] | Substance | also measured
3 | 5.97 | – | GFP appended with the last 13 residues of MSMEI_3879 | –
4 | 19.1 | – | GFP preceded by the first 13 residues of MSMEI_3879 | –
5 | – | 2.06 | ^MSMEI_3879GFP (MSMEI_3879 fused to the N terminus of GFP) | –
